Assay results published in US20120213801.

T1: Flag-tagged Twist-1 WT from starved HEK293 cells (not phosphorylated)
T1 sequence: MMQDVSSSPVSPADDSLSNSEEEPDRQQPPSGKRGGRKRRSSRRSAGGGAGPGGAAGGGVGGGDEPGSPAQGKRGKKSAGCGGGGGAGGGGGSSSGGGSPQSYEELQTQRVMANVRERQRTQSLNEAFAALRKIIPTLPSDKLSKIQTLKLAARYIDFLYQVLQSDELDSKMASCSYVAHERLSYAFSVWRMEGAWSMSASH

T2: GST-Twist-1 (full-length, substrate of the in vitro kinase assay)
T2 chain: T1 sequence

T3: RERQRAQSLNEA-T121A
T3 chain: RERQRAQSLNEA

T4: RERQRTQALNEA-S123A
T4 chain: RERQRTQALNEA

T5: RERQRTQSLNEA-T121/5123
T5 chain: RERQRTQSLNEA

T6: RKRRSARRSAGG-S42A
T6 chain: RKRRSARRSAGG

T7: RKRRSSRRAAGG-S45A
T7 chain: RKRRSSRRAAGG

T8: RKRRSSRRSAGG-S42/S45
T8 chain: RKRRSSRRSAGG

B1: activated recombinant PKBβ (protein)
chain: KVTMNDFDYLKLLGKGTFGKVILVREKATGRYYAMKILRKEVIIAKDEVAHTVTESRVLQNTRHPFLTALKYAFQTHDRLCFVMEYANGGELFFHLSRERVFTEERARFYGAEIVSALEYLHSRDVVYRDIKLENLMLDKDGHIKITDFGLCKEGISDGATMKTFCGTPEYLAPEVLEDNDYGRAVDWWGLGVVMYEMMCGRLPFYNQDHERLFELILMEEIRFPRTLSPEAKSLLAGLLKKDPKQRLGGGPSDAKEVMEHRFFLSINWQDVVQKKLLPPFKPQVTSEVDTRYFDDEFTAQSITITPPDRYDSLGLLELDQRTHFPQFSYSASIRE

How the values were obtained:
[1] = system: T1, Flag-tagged Twist-1 WT from starved HEK293 cells (not phosphorylated)
[2] = target: T2, GST-Twist-1 (full-length, substrate of …)
RERQRAQSLNEA-T121A = target: T3, RERQRAQSLNEA-T121A
RERQRTQALNEA-S123A = target: T4, RERQRTQALNEA-S123A
RERQRTQSLNEA-T121/5123 = target: T5, RERQRTQSLNEA-T121/5123
RKRRSARRSAGG-S42A = target: T6, RKRRSARRSAGG-S42A
RKRRSSRRAAGG-S45A = target: T7, RKRRSSRRAAGG-S45A
RKRRSSRRSAGG-S42/S45 = target: T8, RKRRSSRRSAGG-S42/S45

Molecule | Twist-1 S42 phosphorylation after serum stimulation (Western blot; shRNA against PKB) [1] | in vitro kinase assays followed by mass spectrometry (MS) analysis [2] | phosphorylation of synthetic peptide (in vitro kinase assay, 32P-ATP, scintillation counting); no such loss, by implication (RERQRAQSLNEA-T121A) | phosphorylation of synthetic peptide (in vitro kinase assay, 32P-ATP, scintillation counting); almost complete loss (RERQRTQALNEA-S123A) | phosphorylation of synthetic peptide (in vitro kinase assay, 32P-ATP, scintillation counting); parent peptide, phosphorylated by implication (RERQRTQSLNEA-T121/5123) | phosphorylation of synthetic peptide (in vitro kinase assay, 32P-ATP, scintillation counting); almost complete loss (RKRRSARRSAGG-S42A) | phosphorylation of synthetic peptide (in vitro kinase assay, 32P-ATP, scintillation counting); no such loss, by implication (RKRRSSRRAAGG-S45A) | phosphorylation of synthetic peptide (in vitro kinase assay, 32P-ATP, scintillation counting); parent peptide, phosphorylated by implication (RKRRSSRRSAGG-S42/S45)
endogenous PKB kinase of HEK293 cells | Twist-1 S42 phosphorylation was not induced after serum stimulation of cells with a low PKB content | – | – | – | – | – | – | –
B1 | – | confirmed that PKB phosphorylates Twist-1 in vitro on two residues S42 and S123 | Only substitution of serine to alanine at positions 42 and 123 resulted in almost complete loss of phosphorylation of the corresponding peptide by PKB | Only substitution of serine to alanine at positions 42 and 123 resulted in almost complete loss of phosphorylation of the corresponding peptide by PKB | Only substitution of serine to alanine at positions 42 and 123 resulted in almost complete loss of phosphorylation of the corresponding peptide by PKB | Only substitution of serine to alanine at positions 42 and 123 resulted in almost complete loss of phosphorylation of the corresponding peptide by PKB | Only substitution of serine to alanine at positions 42 and 123 resulted in almost complete loss of phosphorylation of the corresponding peptide by PKB | Only substitution of serine to alanine at positions 42 and 123 resulted in almost complete loss of phosphorylation of the corresponding peptide by PKB
